The source of these data is patent US8273357B2, “Antigen-carbohydrate conjugates” (Massachusetts Institute of Technology, priority 2004, dated 2012).

Entries after “also recorded” stand apart in the source; their conditions may differ.

In assay [1] the target is langerin (Homo sapiens, UniProt Q9UJ71). As to conditions: solid-phase binding studies; cited from earlier work.
In assay [2] the test system is OTII T cells. Briefly: Adoptive transfer of OTII cells, subcutaneous immunization, FACS count of donor T cells. As to conditions: 200 ng subcutaneous. It counts as in vivo, mouse. The text has this: FIGS. 6A, 6B, and 6C are a schematic diagram (FIG. 6A) and a series of flow cytometry dot plots (FIGS. 6B and 6C). FIG. 6A is a schematic diagram that illustrates the adoptive transfer technique: CD4^+CD45.2^+ ovalbumin-specific T cells are adoptively transferred to congenic CD45.1^+ recipients. After immunization the draining lymph nodes and other lymphoid organs (e.g., the spleen) are isolated. Cells from these tissues are stained with an antibody against the CD45.2 isoform and the OTII T cell receptor to identify the original donor cells. […] B6.Ly5.2/Cr mice were injected intravenously with 2×10^7 OTII splenocytes. 24 hours later the mice were injected subcutaneously with PBS, OVA (200 ng), or (OVA)-3-1 (200 ng). […] Each panel represents two or more experiments.
In order to determine the immunological implications of (OVA)-3-1 internalization and presentation by dendritic cells in vivo, the technique of adoptive transfer (FIG. 6A) was employed to track the T cell responses to DC presented antigen^15. […]
CD45.2^+ VA-specific T cells were transferred to B6.Ly5.2/Cr (CD45.1^+) recipients and, after a twenty-four hour rest period, the mice were immunized subcutaneously with PBS, OVA or (OVA)-3-1. After seventy-two hours, cells were isolated from the draining inguinal lymph nodes and counted by FACS to determine the extent of OTII cell division induced by the immunization regimen (FIG. 6B). […]

Assay [3] has as its system OTII T cells. Description: Adoptive transfer, immunization, OVA peptide/CFA rechallenge at day 8, OTII cell count at day ten. It counts as in vivo, mouse. As for the experimental part:
FIGS. 8A and 8B are a series of dot plots (FIG. 8A) and a graph (FIG. 8B) showing that the oligosaccharide-mediated targeting of steady state dendritic cells leads to T cell tolerance. […] 2×10^7 OTII splenocytes were adoptively transferred into B6.Ly5.2/Cr recipients and then immunized by subcutaneous injection with PBS, OVA (200 ng), (OVA)-3-1 (200 ng), (OVA)-3-1 (200 ng)+mBSA (50 μg) or OVA peptide (100 μg) in Incomplete Freund's Adjuvant. At 8 days after these initial immunizations, mice received an antigenic rechallenge of OVA peptide (100 μg) in Complete Freund's Adjuvant. On day ten mice were sacrificed and cells were isolated from the draining lymph node, total T cells were purified by negative selection and the number of OTII T cells were counted by FACS as described for FIG. 6. […] Purified T cells from each experimental group were seeded at 3×10^5 cells/well with purified […] dendritic cells (9×10^4/well) and were incubated for twenty-four hours±OVA peptide (100 μg mL^−1) with [^3H]thymidine (1 μCi) added for the last ten hours. Prior to [^3H]thymidine addition, an aliquot of supernatant was removed for IFN-γ determination by ELISA.
At three days post-immunization, antibody-based targeting of the DEC-205 receptor led to a 6.5-fold enhancement of T cell activation relative to non-targeted antigen^2. After seven days, however, the activated T cell population diminished in number by 88% and the remaining T cells were unresponsive to systemic challenge of antigen in the highly stimulatory adjuvant CFA. […] To more fully understand the immunological consequences of these enhancements, OVA peptide (100 μg) was administered in CFA at eight days post-antigen immunization and the T cells' ability to respond to DC-presented peptide in vitro was assayed two days later (FIGS. 8A and 8B)^2: A positive control for T cell tolerance, consisting of a high dose administration of OVA peptide (100 μg) in Incomplete Freund's Adjuvant was also included. This regimen has been shown in a number of different studies to led to a state of T cell unresponsiveness upon antigen rechallenge^24,25.

Assay [4] relates to IFN-γ. Briefly: IFN-γ ELISA of supernatants from purified dendritic cell/OTII T cell assay. It is filed as cell-based, mouse. The settings on record: average; 72 h supernatants. As to the method:
FIGS. 4A, 4B, 4C and 4D are graphs showing that CD11c^+ dendritic cells are the main antigen presenting cells presenting 3-1-targeted antigen. […] 1.5×10^4 Splenic CD11c^+ dendritic cells purified from C57BL/6 mice and 3.0×10^4 purified OTII T cells were incubated with OVA (starting concentration 300 μg mL^−1) or (OVA)-3-1 (starting concentration 25 μg mL^−1) in graded doses for eight-four hours with [^3H]thymidine (1 μCi) added for the last twelve hours. […] Purified CD11c^+ dendritic cells and OTII T cells were incubated with (OVA)-3-1 (25 μg mL^−1)±each potential inhibitor (100 μg mL^−1). T cell proliferation was determined as for FIG. 4A. […] CD11c^+ dendritic cells and OTII T cells were incubated with OVA or (OVA)-3-1±lipopolysaccharide ([…]). Also included are all ‘non-dendritic cells’ (macrophages and B cells) obtained during the purification of the dendritic cells. T cell proliferation was determined as described in FIG. 4A. […] Supernatants from cells described in FIG. 4C were collected at forty-eight and seventy-two hours and measured for IFN-γ by ELISA; the values presented are from the seventy-two hour time point. […]
75-150 μL aliquots of supernatant were sampled from antigen presentation assays at 24, 48, and 72 hours. […] 25 μL of each supernatant were diluted 1:1 with PBS/1% BSA and analyzed in triplicate for IFN-γ, IL-10, and IL-4 using DuoSet ELISA reagents from R&D Systems. […]

Setting [5] is: two days post-antigen rechallenge in CFA (day ten).

Chain of langerin (Q9UJ71 whole entry, species assumed, canonical isoform): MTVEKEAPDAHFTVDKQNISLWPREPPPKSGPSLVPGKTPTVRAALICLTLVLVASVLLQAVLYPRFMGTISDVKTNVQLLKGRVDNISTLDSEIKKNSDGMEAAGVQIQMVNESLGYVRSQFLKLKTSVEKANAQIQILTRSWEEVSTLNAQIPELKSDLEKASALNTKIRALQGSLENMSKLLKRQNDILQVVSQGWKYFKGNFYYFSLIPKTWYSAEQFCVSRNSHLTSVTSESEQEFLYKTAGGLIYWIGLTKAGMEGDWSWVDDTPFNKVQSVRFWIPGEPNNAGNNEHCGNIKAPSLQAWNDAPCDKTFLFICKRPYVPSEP

On to “mBSA: BSA modified with approximately 25 mannose residues per protein molecule [reference compound]”, for which the binding by langerin result in assay [1] is listed as “bound by langerin”.

B1: (OVA)-3-1: ovalbumin modified via SMCC with nonasaccharide 3-1, average of three saccharides per OVA (conjugate)
chain: GSIGAASMEFCFDVFKELKVHHANENIFYCPIAIMSALAMVYLGAKDSTRTQINKVVRFDKLPGFGDSIEAQCGTSVNVHSSLRDILNQITKPNDVYSFSLASRLYAEERYPILPEYLQCVKELYRGGLEPINFQTAADQARELINSWVESQTNGIIRNVLQPSSVDSQTAMVLVNAIVFKGLWEKAFKDEDTQAMPFRVTEQESKPVQMMYQIGLFRVASMASEKMKILELPFASGTMSMLVLLPDEVSGLEQLESIINFEKLTEWTSSNVMEERKIKVYLPRMKMEEKYNLTSVLMAMGITDVFSSSANLSGISSAESLKISQAVHAAHAEINEAGREVVGSAEAGVDAASVSEEFRADHPFLFCIKHIATNAVLFFGRCVSP
On to B1, for which the “total OTII cell number in the draining lymph node compared to soluble OVA” value in assay [2] (72 h) was “doubling; also recorded: promotes expansion”. Also, the “total OTII cell number in the spleen” value in assay [2] (3 days) is recorded as “appreciable increase”. For the same molecule, in assay [3] (day ten after immunization), the “number of OTII T cells compared with OVA immunized mice” value was “much greater number”. Moreover, the “T cell deletion in vivo” value in assay [3] (mouse, in vivo) was “not observed”. Further, in assay [3] (setting [5]), the “number of OTII cells relative to the saline control group” value is 6 fold and the “number of OTII cells relative to unmodified (soluble) OVA” value worked out at 7.8 fold.

B2: ovalbumin (protein, UniProt P01012 2-386, looked up)
Ovalbumin: GSIGAASMEFCFDVFKELKVHHANENIFYCPIAIMSALAMVYLGAKDSTRTQINKVVRFDKLPGFGDSIEAQCGTSVNVHSSLRDILNQITKPNDVYSFSLASRLYAEERYPILPEYLQCVKELYRGGLEPINFQTAADQARELINSWVESQTNGIIRNVLQPSSVDSQTAMVLVNAIVFKGLWEKAFKDEDTQAMPFRVTEQESKPVQMMYQIGLFRVASMASEKMKILELPFASGTMSMLVLLPDEVSGLEQLESIINFEKLTEWTSSNVMEERKIKVYLPRMKMEEKYNLTSVLMAMGITDVFSSSANLSGISSAESLKISQAVHAAHAEINEAGREVVGSAEAGVDAASVSEEFRADHPFLFCIKHIATNAVLFFGRCVSP
notes: model antigen, unmodified
In the case of B2, the “less IFN-γ produced by T cells responding to OVA than to (OVA)-3-1” value in assay [4] is on record as 40%.
